Laboratory results: IntAct's records for PubMed 23650535

B1: Receptor-type tyrosine-protein phosphatase eta (Homo sapiens), Q12913 (parent)
chain: MKPAAREARLPPRSPGLRWALPLLLLLLRLGQILCAGGTPSPIPDPSVATVATGENGITQISSTAESFHKQNGTGTPQVETNTSEDGESSGANDSLRTPEQGSNGTDGASQKTPSSTGPSPVFDIKAVSISPTNVILTWKSNDTAASEYKYVVKHKMENEKTITVVHQPWCNITGLRPATSYVFSITPGIGNETWGDPRVIKVITEPIPVSDLRVALTGVRKAALSWSNGNGTASCRVLLESIGSHEELTQDSRLQVNISGLKPGVQYNINPYLLQSNKTKGDPLGTEGGLDASNTERSRAGSPTAPVHDESLVGPVDPSSGQQSRDTEVLLVGLEPGTRYNATVYSQAANGTEGQPQAIEFRTNAIQVFDVTAVNISATSLTLIWKVSDNESSSNYTYKIHVAGETDSSNLNVSEPRAVIPGLRSSTFYNITVCPVLGDIEGTPGFLQVHTPPVPVSDFRVTVVSTTEIGLAWSSHDAESFQMHITQEGAGNSRVEITTNQSIIIGGLFPGTKYCFEIVPKGPNGTEGASRTVCNRTVPSAVFDIHVVYVTTTEMWLDWKSPDGASEYVYHLVIESKHGSNHTSTYDKAITLQGLIPGTLYNITISPEVDHVWGDPNSTAQYTRPSNVSNIDVSTNTTAATLSWQNFDDASPTYSYCLLIEKAGNSSNATQVVTDIGITDATVTELIPGSSYTVEIFAQVGDGIKSLEPGRKSFCTDPASMASFDCEVVPKEPALVLKWTCPPGANAGFELEVSSGAWNNATHLESCSSENGTEYRTEVTYLNFSTSYNISITTVSCGKMAAPTRNTCTTGITDPPPPDGSPNITSVSHNSVKVKFSGFEASHGPIKAYAVILTTGEAGHPSADVLKYTYEDFKKGASDTYVTYLIRTEEKGRSQSLSEVLKYEIDVGNESTTLGYYNGKLEPLGSYRACVAGFTNITFHPQNKGLIDGAESYVSFSRYSDAVSLPQDPGVICGAVFGCIFGALVIVTVGGFIFWRKKRKDAKNNEVSFSQIKPKKSKLIRVENFEAYFKKQQADSNCGFAEEYEDLKLVGISQPKYAAELAENRGKNRYNNVLPYDISRVKLSVQTHSTDDYINANYMPGYHSKKDFIATQGPLPNTLKDFWRMVWEKNVYAIIMLTKCVEQGRTKCEEYWPSKQAQDYGDITVAMTSEIVLPEWTIRDFTVKNIQTSESHPLRQFHFTSWPDHGVPDTTDLLINFRYLVRDYMKQSPPESPILVHCSAGVGRTGTFIAIDRLIYQIENENTVDVYGIVYDLRMHRPLMVQTEDQYVFLNQCVLDIVRSQKDSKVDLIYQNTTAMTIYENLAPVTTFGKTNGYIA

Variants of: B1
Details: with flt3_human FLT3, P36888
Chain of flt3_human FLT3, P36888 (P36888 whole entry): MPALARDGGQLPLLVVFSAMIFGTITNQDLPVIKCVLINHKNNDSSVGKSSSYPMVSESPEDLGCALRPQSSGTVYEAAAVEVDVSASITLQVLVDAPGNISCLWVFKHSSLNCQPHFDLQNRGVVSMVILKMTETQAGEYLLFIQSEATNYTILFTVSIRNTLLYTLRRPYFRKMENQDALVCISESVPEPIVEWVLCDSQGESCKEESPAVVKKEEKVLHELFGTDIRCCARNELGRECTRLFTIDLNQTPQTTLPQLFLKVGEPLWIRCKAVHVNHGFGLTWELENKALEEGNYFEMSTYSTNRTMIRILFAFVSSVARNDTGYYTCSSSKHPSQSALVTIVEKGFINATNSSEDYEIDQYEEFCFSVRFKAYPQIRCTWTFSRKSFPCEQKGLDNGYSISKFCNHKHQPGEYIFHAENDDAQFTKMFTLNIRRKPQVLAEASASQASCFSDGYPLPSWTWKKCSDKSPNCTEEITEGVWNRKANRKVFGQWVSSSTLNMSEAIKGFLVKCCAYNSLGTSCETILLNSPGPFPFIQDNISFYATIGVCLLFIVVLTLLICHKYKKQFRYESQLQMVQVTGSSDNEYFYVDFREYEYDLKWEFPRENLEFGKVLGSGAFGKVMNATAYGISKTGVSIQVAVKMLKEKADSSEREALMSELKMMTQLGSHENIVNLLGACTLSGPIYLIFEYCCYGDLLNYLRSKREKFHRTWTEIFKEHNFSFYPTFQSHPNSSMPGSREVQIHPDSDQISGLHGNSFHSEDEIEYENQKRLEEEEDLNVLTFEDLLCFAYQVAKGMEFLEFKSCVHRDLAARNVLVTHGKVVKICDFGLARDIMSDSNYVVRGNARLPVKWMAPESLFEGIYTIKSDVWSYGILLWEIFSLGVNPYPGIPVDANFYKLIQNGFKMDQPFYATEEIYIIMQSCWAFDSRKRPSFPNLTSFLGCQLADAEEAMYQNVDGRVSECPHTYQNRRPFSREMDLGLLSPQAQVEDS

Row | effect of a mutation on the interaction | Variant
1 | increasing interaction strength | C1239S
